Source: patent publication US20240287172A1 (SCIRHOM, published 2024)
Read-outs that look alike come from different tables or passages of the source.

Tests used:
hiR1-FL-WT-T7 [1] = biological target: T1, hiR1-FL-WT-T7 (human, UniProt Q96CC6 1-855); assay: FACS on MEF-DKO-hiR1-FL-WT-T7 cells
T1 construct: on MEF-DKO cells
T1 sequence: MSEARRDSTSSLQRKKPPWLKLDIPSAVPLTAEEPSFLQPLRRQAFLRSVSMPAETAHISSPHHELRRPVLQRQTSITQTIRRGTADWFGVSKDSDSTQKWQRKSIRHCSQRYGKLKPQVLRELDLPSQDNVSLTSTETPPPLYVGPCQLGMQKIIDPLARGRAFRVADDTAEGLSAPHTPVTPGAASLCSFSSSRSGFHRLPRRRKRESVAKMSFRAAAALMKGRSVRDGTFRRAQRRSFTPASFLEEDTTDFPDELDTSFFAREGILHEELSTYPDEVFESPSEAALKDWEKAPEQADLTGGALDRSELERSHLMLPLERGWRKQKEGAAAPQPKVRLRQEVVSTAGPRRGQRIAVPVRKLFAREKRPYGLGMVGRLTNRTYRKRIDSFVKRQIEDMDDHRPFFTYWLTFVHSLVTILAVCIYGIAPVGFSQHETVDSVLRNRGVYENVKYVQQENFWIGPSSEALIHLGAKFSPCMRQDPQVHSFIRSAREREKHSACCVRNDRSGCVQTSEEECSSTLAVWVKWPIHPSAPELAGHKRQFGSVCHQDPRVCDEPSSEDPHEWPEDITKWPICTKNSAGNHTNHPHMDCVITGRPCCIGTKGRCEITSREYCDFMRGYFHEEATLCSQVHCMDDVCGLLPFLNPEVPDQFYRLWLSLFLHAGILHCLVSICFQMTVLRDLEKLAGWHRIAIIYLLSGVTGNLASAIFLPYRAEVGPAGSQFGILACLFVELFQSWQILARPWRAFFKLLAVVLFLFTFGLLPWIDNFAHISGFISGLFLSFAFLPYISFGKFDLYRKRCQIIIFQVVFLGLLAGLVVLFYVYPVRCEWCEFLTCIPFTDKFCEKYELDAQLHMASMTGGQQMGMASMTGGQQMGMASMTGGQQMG

miR2-FL-WT-T7 [2] = biological target: T2, miR2-FL-WT-T7 (mouse, UniProt Q80WQ6 1-827); assay: FACS on MEF-DKO-miR2-FL-WT-T7 cells
T2 construct: on MEF-DKO cells
T2 sequence: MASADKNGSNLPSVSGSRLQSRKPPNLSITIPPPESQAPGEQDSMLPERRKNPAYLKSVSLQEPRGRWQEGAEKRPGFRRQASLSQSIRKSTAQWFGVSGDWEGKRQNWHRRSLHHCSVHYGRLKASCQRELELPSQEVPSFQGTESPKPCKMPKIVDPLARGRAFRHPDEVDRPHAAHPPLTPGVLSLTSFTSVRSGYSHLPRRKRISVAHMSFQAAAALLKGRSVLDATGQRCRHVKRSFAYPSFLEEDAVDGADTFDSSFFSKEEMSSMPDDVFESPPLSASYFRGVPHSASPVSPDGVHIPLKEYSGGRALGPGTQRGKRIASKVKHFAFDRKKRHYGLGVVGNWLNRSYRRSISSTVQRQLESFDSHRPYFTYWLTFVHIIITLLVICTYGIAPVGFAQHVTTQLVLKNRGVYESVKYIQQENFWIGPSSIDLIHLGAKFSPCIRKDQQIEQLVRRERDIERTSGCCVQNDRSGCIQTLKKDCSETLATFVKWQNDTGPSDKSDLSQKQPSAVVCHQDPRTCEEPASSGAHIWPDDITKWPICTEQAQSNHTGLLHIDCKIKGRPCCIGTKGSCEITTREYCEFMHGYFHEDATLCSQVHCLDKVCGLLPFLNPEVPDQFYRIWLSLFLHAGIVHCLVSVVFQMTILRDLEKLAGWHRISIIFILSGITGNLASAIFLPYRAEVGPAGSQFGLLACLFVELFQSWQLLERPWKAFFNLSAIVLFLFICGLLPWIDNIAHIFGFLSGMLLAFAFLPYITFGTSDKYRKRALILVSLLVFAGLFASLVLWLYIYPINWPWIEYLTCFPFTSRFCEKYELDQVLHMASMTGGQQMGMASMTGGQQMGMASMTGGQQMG

hiR1-FL-WT-T7 [3] = biological target: T1, hiR1-FL-WT-T7; assay: FACS, MEF-DKO-hiR1-FL-WT-T7 cells
miR2-FL-WT-T7 [4] = biological target: T2, miR2-FL-WT-T7; assay: FACS on MEF-DKO-miR2-FL-WT-T7 cells; remark: listed apart in the source
hiR2-FL-M534S-T7 = biological target: T3, hiR2-FL-M534S-T7 (human, UniProt Q6PJF5 1-856); assay: FACS, MEF-DKO cells, 3 µg/ml
T3 sequence: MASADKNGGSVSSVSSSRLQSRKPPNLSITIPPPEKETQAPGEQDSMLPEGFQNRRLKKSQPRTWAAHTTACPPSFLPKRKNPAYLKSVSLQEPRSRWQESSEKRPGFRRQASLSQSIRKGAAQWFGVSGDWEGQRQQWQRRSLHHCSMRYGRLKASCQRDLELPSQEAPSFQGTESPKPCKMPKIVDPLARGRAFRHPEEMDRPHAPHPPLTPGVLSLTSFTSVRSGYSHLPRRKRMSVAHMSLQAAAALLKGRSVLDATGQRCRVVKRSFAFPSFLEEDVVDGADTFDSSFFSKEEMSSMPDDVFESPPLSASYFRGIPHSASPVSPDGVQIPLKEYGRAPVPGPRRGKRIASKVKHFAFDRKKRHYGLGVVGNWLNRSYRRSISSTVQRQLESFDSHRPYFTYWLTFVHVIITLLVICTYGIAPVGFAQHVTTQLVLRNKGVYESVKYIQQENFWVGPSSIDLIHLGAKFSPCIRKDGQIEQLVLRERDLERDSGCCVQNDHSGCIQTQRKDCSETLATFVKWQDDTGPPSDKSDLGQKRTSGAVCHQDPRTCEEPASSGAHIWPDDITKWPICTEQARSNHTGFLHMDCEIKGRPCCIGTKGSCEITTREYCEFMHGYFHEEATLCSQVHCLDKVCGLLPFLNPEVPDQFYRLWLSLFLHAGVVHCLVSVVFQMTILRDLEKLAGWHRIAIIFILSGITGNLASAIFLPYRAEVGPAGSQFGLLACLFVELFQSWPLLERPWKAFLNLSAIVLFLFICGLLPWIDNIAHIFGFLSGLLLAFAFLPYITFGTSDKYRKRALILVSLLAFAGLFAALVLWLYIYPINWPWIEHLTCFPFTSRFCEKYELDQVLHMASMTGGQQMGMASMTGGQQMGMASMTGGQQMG

B1: antibody 3 (antibody, V domains shown)
VH: QVTLKESGPGILQPSQTLSLTCSFSGFSLTTFAMGIGWVRQPSGKGLEWLAHIWWDGEKYNNPVLKSRLTISKDTSKNQVFLRIANVDTPDTATYYCARISSIYYIIDNWGQGTSVTVSS
VL: DIVLTQSPATLSVTPGHSVSLSCRASQSISNNLHWYQKKSHESPRLLIKYVSQSISGIPSRFSGSGSGTDFTLSINSVETEDFGMYFCQQSYNWPLTFGAGTKLELK
notes: mouse IgG, kappa light chain; also called clone #3; purified antibody 3
- binding result (hiR1-FL-WT-T7 [1]): no binding (tested: 3 µg/ml)
- binding result (miR2-FL-WT-T7 [2]): no binding (tested: 3 µg/ml)

B2: antibody 48 (antibody, V domains shown)
VH: QVQLQQSGTELVRPGTSVKVSCKASGYAFTNYLIEWVKQRPGQGLEWIGVINPGSGFTKYNEKFKGKATLTADKSSSTVYMHLSSLTSEDSAVYFCARGLYRAMDYWGQGTSVTVSS
VL: DIQMTQSPASQSASLGESVTITCLASQTIATWLAWYQQKPGKSPQLLIYGATTLADGVPSRFSGGGSGTKFSFKISSLQAEDFVSYYCQQLYSTPYTFGGGTKLEIK
notes: mouse IgG, kappa light chain; also called clone #48; purified antibody 48
- binding result (hiR1-FL-WT-T7 [3]): no binding (tested: 3 µg/ml)

B3: antibody 50 (antibody, V domains shown)
VH: QVQLQQSGAELVRPGASVKVSCKASGYAFSNYLIEWVKQRPGQGLEWIGVINPGSGFTKYNEKFKGKATLTADKSSSTAYMQLSSLTSEDSAVYFCARGLYRAMDYWGQGTSVTVSS
VL: DIQMTQSPASQSASLGESVTITCLASQTIGTWLAWYQQKPGKSPQLLIYAAASLADGVPSRFSGGGSGTKFSFKISSLQAEDFVNYYCQQIYSTPYTFGGGTKLEIK
notes: mouse IgG, kappa light chain; also called clone #50; purified antibody 50
- binding result (miR2-FL-WT-T7 [4]): no binding (tested: 3 µg/ml)

B4: antibody 5 (antibody, V domains shown)
VH: QVTLKESGPGILQPSQTLSLTCSFSGFSLSTFGMGVGWIRQPSGKGLEWLAHIWWDDEKYYNSALKSRLTISKATSKNQAFLKIANVDTADTATYYCARISNYGSNYWYFNVWGTGTTVTVSS
VL: QVVLTQSPALMSASPGEKVTMTCSAGSSVSCMYWYQQKPGSSPRVLIYDTSNLASGVPARFTGSGSGTSYSLTISRMEAEDAASYYCQQWNSYPLTFGAGTKLELK
notes: mouse IgG, kappa light chain; also called clone #5; purified antibody 5
- loss of binding vs wild type (hiR2-FL-M534S-T7): ≥ 30%
